In patent US20190388506A1:

Biological target: C3 convertase (C3bBb) (human) (UniProt P01024)
Experiment: cell-based or functional assay

Sequence of C3 convertase (C3bBb) (human) (P01024 749-1663, chain 1 of 2): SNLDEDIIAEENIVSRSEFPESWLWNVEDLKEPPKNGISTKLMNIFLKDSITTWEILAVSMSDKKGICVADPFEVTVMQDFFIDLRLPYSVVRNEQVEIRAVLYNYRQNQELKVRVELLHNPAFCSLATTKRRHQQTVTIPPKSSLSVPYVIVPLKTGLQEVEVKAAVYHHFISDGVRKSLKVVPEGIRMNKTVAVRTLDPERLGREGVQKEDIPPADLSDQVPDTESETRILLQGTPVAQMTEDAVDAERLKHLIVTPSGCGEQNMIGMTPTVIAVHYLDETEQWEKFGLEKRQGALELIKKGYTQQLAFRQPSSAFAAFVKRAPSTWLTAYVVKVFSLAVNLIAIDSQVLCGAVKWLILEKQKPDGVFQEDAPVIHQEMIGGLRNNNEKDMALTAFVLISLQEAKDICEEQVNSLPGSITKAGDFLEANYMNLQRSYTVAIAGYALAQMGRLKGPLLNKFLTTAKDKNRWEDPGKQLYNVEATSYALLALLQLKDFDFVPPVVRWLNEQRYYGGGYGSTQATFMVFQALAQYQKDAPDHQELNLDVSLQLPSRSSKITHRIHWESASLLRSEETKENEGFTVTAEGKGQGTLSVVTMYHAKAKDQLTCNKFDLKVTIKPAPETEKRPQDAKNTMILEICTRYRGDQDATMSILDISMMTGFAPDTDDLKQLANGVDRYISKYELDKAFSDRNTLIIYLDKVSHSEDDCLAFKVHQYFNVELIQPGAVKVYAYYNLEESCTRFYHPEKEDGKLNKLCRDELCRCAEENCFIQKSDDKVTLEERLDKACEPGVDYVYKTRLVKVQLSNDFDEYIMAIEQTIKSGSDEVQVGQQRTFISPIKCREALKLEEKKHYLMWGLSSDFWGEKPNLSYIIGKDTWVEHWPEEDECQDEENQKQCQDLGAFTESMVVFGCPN
Sequence of C3 convertase (C3bBb) (human) (P00751 260-764, chain 2 of 2, further chain): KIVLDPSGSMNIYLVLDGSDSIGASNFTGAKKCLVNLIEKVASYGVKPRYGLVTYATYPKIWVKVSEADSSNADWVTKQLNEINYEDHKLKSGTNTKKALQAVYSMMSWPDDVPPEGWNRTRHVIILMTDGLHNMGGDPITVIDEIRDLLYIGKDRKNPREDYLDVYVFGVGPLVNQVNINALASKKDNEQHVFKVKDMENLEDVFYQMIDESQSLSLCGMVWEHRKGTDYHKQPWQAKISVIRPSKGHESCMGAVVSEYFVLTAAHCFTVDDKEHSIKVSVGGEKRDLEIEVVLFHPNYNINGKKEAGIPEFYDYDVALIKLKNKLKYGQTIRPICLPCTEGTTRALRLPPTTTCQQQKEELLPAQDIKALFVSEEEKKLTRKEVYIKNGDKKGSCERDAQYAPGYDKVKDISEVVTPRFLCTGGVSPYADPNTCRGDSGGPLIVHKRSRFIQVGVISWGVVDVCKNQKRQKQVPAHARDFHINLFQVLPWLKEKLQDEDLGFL

Which Anti-C3 convertase (EC50 µg/ml) does the source give for “FH fragment "SCR1-6" (SCR 1 to 6 of human factor H) (from UniProt P08603 19-388)” here?
Its Anti-C3 convertase (EC50 µg/ml) is 0.093 µg/mL.

Biological target: C3b (purified) (UniProt P01024)
Experiment: cell-based or functional assay

Sequence of C3b (purified) (P01024 749-1663, chain 1 of 2): as the sequence (P01024 749-1663, chain 1 of 2) above
Sequence of C3b (purified) (P01024 23-667, chain 2 of 2): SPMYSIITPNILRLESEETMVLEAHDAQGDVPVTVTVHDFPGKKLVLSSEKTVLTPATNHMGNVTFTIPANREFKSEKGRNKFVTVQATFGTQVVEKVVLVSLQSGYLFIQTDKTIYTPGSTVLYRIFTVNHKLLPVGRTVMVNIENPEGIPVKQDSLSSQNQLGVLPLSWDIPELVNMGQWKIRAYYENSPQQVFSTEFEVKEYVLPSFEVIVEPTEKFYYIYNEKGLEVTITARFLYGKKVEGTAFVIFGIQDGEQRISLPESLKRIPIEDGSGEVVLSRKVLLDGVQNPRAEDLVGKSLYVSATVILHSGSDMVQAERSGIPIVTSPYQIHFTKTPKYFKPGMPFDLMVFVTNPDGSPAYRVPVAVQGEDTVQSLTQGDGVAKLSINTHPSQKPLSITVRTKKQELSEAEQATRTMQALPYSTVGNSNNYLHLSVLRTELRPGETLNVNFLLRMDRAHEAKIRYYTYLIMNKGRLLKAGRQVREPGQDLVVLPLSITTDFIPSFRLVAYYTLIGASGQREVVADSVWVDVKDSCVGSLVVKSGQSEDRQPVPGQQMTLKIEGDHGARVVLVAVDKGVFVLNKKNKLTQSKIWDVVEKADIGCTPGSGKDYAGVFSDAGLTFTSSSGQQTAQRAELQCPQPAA

With “FH fragment "SCR6-8" (SCR 6 to 8 of human factor H)” as the substance, how does the F1 cofactor (%) read?
The F1 cofactor (%) was 0%.

For “FH fragment "7CT18" (SCR 7 to 18 of human factor H) (from UniProt P08603 389-1102)”, which F1 cofactor (%) is on record?
Its F1 cofactor (%) is 0%.

With “FH fragment "1NT7" (SCR 1 to 7 of human factor H) (from UniProt P08603 19-447)” as the substance, how does the F1 cofactor (%) read?
Its F1 cofactor (%) is 100%.

With “FH fragment "7CT20" (SCR 7 to 20 of human factor H) (from UniProt P08603 389-1231)” as the substance, how does the F1 cofactor (%) read?
Its F1 cofactor (%) is 0%.

For “FH fragment "SCR1-4" (SCR 1 to 4 of human factor H)”, which F1 cofactor (%) is on record?
Its F1 cofactor (%) is 100%.

With “FH fragment "SCR1-6" (SCR 1 to 6 of human factor H) (from UniProt P08603 19-388)” as the substance, how does the F1 cofactor (%) read?
The F1 cofactor (%) was 100%.

For “FH fragment "8CT20" (SCR 8 to 20 of human factor H) (from UniProt P08603 448-1231)”, which F1 cofactor (%) is on record?
Its F1 cofactor (%) is 0%.

“FH fragment "1NT18" (SCR 1 to 18 of human factor H) (from UniProt P08603 19-1102)” was tested. Which F1 cofactor (%) did it give?
The F1 cofactor (%) was 100%.
